The text below walks through data of US20050260212A1 (PDL BIOPHARMA, published 2005).

The test has as its target T1, human LFL2-Fc fusion protein (human, UniProt P01857-1 99-330 = IgG part, limits assumed).
T1 construct: domain: constant region of the human gamma 1 immunoglobulin heavy chain; In-frame fusion of the LFL2 extracellular domain with the human gamma 1 constant region; GenBank NP-570843.1 is printed for LFL2/LRRC15
The test can be described thus: SPR (BIAcore 3000), mAb immobilised on CM5, LFL2-Fc analyte, bivalent analyte model. In general terms: SPR reads the build-up and loss of mass on a sensor chip optically.

T1 sequence (P01857 other isoform, or with tags, fused parts or gaps limits assumed): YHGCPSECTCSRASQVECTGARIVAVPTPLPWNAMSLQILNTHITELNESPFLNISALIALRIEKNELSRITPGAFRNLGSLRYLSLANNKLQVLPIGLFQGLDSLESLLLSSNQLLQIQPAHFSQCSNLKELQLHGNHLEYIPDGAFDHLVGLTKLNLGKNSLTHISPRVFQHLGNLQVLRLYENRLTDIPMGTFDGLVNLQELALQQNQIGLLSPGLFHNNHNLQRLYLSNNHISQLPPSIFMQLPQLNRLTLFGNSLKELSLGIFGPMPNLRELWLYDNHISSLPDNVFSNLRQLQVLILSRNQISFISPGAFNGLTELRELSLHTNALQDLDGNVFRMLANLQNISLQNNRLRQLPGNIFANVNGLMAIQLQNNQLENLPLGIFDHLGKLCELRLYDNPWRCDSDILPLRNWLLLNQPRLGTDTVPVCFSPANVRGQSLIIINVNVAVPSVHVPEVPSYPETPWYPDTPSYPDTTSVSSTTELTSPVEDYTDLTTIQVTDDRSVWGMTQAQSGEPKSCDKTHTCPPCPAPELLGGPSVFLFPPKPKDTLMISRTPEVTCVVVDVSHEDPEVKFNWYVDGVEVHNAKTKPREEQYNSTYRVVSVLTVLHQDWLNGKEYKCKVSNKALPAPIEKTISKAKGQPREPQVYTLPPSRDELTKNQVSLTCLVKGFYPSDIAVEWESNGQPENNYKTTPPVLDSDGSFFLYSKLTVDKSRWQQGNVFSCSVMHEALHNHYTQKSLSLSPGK
Procedure: Kinetics measurements between human LFL2-Fc fusion protein and anti-LFL2 mAbs were performed using BIAcore 3000™ (BIAcore™, Sweden). Anti-LFL2 mAbs were immobilized with 100 RUs on Research-grade CM5 sensor chip by the BIAcore amine coupling reagents (N-ethyl-N′-dimethylaminopropylcarbodiimide, EDC; N-hydroxysuccinimide, NHS; and ethanolamine HCl, pH8.5). Assays were run at a flow rate of 30 ul/min at room temperature. Three-minute association phase of each LFL2-Fc was followed by ten-minute injection of running buffer (10 mM Hepes, 300 mM sodium chloride, 3 mM EDTA, 0.05% P-20, pH7.4) to monitor dissociation. The mAb surface was regenerated with 25 mM NaOH. […] Double referencing was applied in each analysis to eliminate background responses from reference surface and buffer only control. The affinity (KD) of binding was obtained by simultaneously fitting the association and dissociation phases of the sensorgram from the analyte concentration series using the bivalent analyte model from BIAevaluate software.

B1: anti-LFL2 mAb M25 (antibody, V domains shown)
VH: QVQLQQSGAELMKPGASVKISCKATGYKFSSYWIEWVKQRPGHGLEWIGEILPGSDTTNYNEKFKDKATFTSDTSSNTAYMQLSSLTSEDSAVYYCARDRGNYRAWFGYWGQGTLVTVS
VL: DIQMTQTSSLSASLGDRVTISCRASQDISNYLNWYQQKPDGTVKFLIYYTSRLHSGVPSRFSGSGSGTDYSLTISYLEPEDIATYFCQQGEALPWTFGGGTKLEIKR
Molecule B1 displayed a Kd of 1.2 nM.
